Reference: paper PMC9977294, “A parasitic fungus employs mutated eIF4A to survive on rocaglate-synthesizing Aglaia plants”

What was measured:
eIF4A1 Phe163His = eIF4A1 Phe163His (Homo sapiens, UniProt P60842 1-406, F163H); assay: fluorescence polarization; 1 mM AMP-PNP, DMSO; 20 mM HEPES-NaOH pH 7.5, 150 mM NaCl, 1 mM MgCl2, 1 mM DTT, 5% glycerol, 1% DMSO, 10 nM FAM-RNA, 0-25 uM protein (source data up to 50), 1 mM AMP-PNP or 1 mM ADP + 1 mM Na2HPO4, room temperature 30 min; Hill fit, n = 3; details: protein: recombinant; tags: His; single strand
eIF4A1 Phe163Gly = eIF4A1 Phe163Gly (Homo sapiens, UniProt P60842 1-406, F163G); assay: as above; details: protein: recombinant; tags: His; single strand
eIF4A1 Phe163Gly, sequence (P60842 whole entry F163G): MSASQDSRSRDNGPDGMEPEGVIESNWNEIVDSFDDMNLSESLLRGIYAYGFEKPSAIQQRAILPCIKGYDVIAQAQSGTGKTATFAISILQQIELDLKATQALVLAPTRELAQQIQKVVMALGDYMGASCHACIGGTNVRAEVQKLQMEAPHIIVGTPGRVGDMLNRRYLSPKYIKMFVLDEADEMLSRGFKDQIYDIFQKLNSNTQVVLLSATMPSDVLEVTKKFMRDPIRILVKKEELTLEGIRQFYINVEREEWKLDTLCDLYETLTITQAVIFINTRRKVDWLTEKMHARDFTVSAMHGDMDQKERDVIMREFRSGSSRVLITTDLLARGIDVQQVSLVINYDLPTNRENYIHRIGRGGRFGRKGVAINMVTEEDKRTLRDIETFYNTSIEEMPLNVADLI

eIF4A1 Phe163His, sequence (P60842 whole entry F163H): as the sequence (P60842 whole entry F163G) above, with G163H counted along it

B1: [AG]10 polypurine RNA (ssRNA)
RNA: AGAGAGAGAGAGAGAGAGAG
B1 was tested, and the Kd (eIF4A1 Phe163His) was 16 ± 2.7 µM and the Kd (eIF4A1 Phe163Gly) was 21 ± 6.7 µM.
